Laboratory results as given in US12692305.

How the values were obtained:
[1] = target: PD-1 on in vitro activated primary human T cells (human) (UniProt Q15116); assay: flow cytometry, detection antibody on Ki-67+ CD8+ activated T cells after 4 d with 1 nM IL-15 alone
[2] = target: PD-1 on in vitro activated primary human T cells (human) (UniProt Q15116); assay: flow cytometry, detection antibody on Ki-67+ CD8+ activated T cells after 4 d with 1 nM RV2 precomplexed with IL-15
[3] = target: PD-1 on in vitro activated primary human T cells (human) (UniProt Q15116); assay: flow cytometry, detection antibody on Ki-67+ CD4+ activated T cells; average pooled over non-PD-1-binding test samples and concentrations
[4] = target: PD-1 on in vitro activated primary human T cells (human) (UniProt Q15116); assay: flow cytometry, detection antibody on Ki-67+ CD8+ activated T cells after 4 d with 100 nM IL-15Rα-Fc precomplexed with IL-15
[5] = target: PD-1 on in vitro activated primary human T cells (human) (UniProt Q15116); assay: flow cytometry, detection antibody on Ki-67+ CD8+ activated T cells after 4 d with 100 nM RV2 precomplexed with IL-15
[6] = target: PD-1 on in vitro activated primary human T cells (human) (UniProt Q15116); assay: flow cytometry, detection antibody on Ki-67+ CD4+ activated T cells after 4 d with 100 nM RV2 precomplexed with IL-15
[7] = target: PD-1 on in vitro activated primary human T cells (human) (UniProt Q15116); assay: flow cytometry, detection antibody on Ki-67+ CD4+ activated T cells after 4 d with 1 nM RV1 precomplexed with IL-15
[8] = target: PD-1 on in vitro activated primary human T cells (human) (UniProt Q15116); assay: flow cytometry, detection antibody on Ki-67+ CD8+ activated T cells after 4 d with 10 nM RV1 precomplexed with IL-15
[9] = target: PD-1 on in vitro activated primary human T cells (human) (UniProt Q15116); assay: flow cytometry, detection antibody on Ki-67+ CD4+ activated T cells after 4 d with 1 nM RV2 precomplexed with IL-15
[10] = target: PD-1 on in vitro activated primary human T cells (human) (UniProt Q15116); assay: flow cytometry, residual staining by detection antibody on Ki-67+ CD8+ activated T cells in the presence of competitors RV29 and RV32 (IL-15 precomplexed); average pooled over both constructs and 100, 10 and 1 nM
[11] = target: PD-1 on in vitro activated primary human T cells (human) (UniProt Q15116); assay: flow cytometry, detection antibody on Ki-67+ CD4+ activated T cells after 4 d with 100 nM RV1 precomplexed with IL-15
[12] = target: PD-1 on in vitro activated primary human T cells (human) (UniProt Q15116); assay: flow cytometry, detection antibody on Ki-67+ CD4+ activated T cells after 4 d with 10 nM IL-15 alone
[13] = target: PD-1 on in vitro activated primary human T cells (human) (UniProt Q15116); assay: flow cytometry, detection antibody on Ki-67+ CD4+ activated T cells after 4 d with 10 nM RV1 precomplexed with IL-15
[14] = target: PD-1 on in vitro activated primary human T cells (human) (UniProt Q15116); assay: flow cytometry, detection antibody on Ki-67+ CD4+ activated T cells after 4 d with 100 nM IL-15Rα-Fc precomplexed with IL-15
[15] = target: PD-1 on in vitro activated primary human T cells (human) (UniProt Q15116); assay: flow cytometry, detection antibody on Ki-67+ CD4+ activated T cells after 4 d with 1 nM IL-15Rα-Fc precomplexed with IL-15
[16] = target: PD-1 on in vitro activated primary human T cells (human) (UniProt Q15116); assay: flow cytometry, detection antibody on Ki-67+ CD8+ activated T cells after 4 d with 10 nM RV2 precomplexed with IL-15
[17] = target: PD-1 on in vitro activated primary human T cells (human) (UniProt Q15116); assay: flow cytometry, detection antibody on Ki-67+ CD8+ activated T cells after 4 d with 10 nM IL-15Rα-Fc precomplexed with IL-15
[18] = target: PD-1 on in vitro activated primary human T cells (human) (UniProt Q15116); assay: flow cytometry, detection antibody on Ki-67+ CD8+ activated T cells after 4 d with 1 nM RV1 precomplexed with IL-15
[19] = target: PD-1 on in vitro activated primary human T cells (human) (UniProt Q15116); assay: flow cytometry, detection antibody on Ki-67+ CD4+ activated T cells after 4 d with 10 nM RV2 precomplexed with IL-15
[20] = target: PD-1 on in vitro activated primary human T cells (human) (UniProt Q15116); assay: flow cytometry, detection antibody on Ki-67+ CD4+ activated T cells after 4 d with 10 nM IL-15Rα-Fc precomplexed with IL-15
[21] = target: PD-1 on in vitro activated primary human T cells (human) (UniProt Q15116); assay: flow cytometry, detection antibody on Ki-67+ CD8+ activated T cells; average pooled over non-PD-1-binding test samples and concentrations
[22] = target: PD-1 on in vitro activated primary human T cells (human) (UniProt Q15116); assay: flow cytometry, detection antibody on Ki-67+ CD8+ activated T cells, media only
[23] = target: PD-1 on in vitro activated primary human T cells (human) (UniProt Q15116); assay: flow cytometry, detection antibody on Ki-67+ CD8+ activated T cells after 4 d with 1 nM IL-15Rα-Fc precomplexed with IL-15
[24] = target: PD-1 on in vitro activated primary human T cells (human) (UniProt Q15116); assay: flow cytometry, detection antibody on Ki-67+ CD4+ activated T cells after 4 d with 1 nM IL-15 alone
[25] = target: PD-1 on in vitro activated primary human T cells (human) (UniProt Q15116); assay: flow cytometry, detection antibody on Ki-67+ CD4+ activated T cells, media only
[26] = target: PD-1 on in vitro activated primary human T cells (human) (UniProt Q15116); assay: flow cytometry, detection antibody on Ki-67+ CD8+ activated T cells after 4 d with 10 nM IL-15 alone
[27] = target: PD-1 on in vitro activated primary human T cells (human) (UniProt Q15116); assay: flow cytometry, residual staining by detection antibody on Ki-67+ CD4+ activated T cells in the presence of competitors RV29 and RV32 (IL-15 precomplexed); average pooled over both constructs and 100, 10 and 1 nM
[28] = target: PD-1 on in vitro activated primary human T cells (human) (UniProt Q15116); assay: flow cytometry, detection antibody on Ki-67+ CD4+ activated T cells after 4 d with 100 nM IL-15 alone
[29] = target: PD-1 on in vitro activated primary human T cells (human) (UniProt Q15116); assay: flow cytometry, detection antibody on Ki-67+ CD8+ activated T cells after 4 d with 100 nM RV1 precomplexed with IL-15
[30] = target: PD-1 on in vitro activated primary human T cells (human) (UniProt Q15116); assay: flow cytometry, detection antibody on Ki-67+ CD8+ activated T cells after 4 d with 100 nM IL-15 alone

Sequence of PD-1 on in vitro activated primary human T cells (human) (Q15116 25-288): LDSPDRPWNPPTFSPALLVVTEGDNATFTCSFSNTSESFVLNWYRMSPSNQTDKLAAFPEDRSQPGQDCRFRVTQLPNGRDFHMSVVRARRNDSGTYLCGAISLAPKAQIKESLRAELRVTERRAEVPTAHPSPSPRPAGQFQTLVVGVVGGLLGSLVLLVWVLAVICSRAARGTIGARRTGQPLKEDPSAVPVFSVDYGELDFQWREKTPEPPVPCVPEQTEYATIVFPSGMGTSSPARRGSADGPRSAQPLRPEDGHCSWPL

“PD-1 detection antibody (clone EH12.21H7)” was tested, and the MFI of PD-1 staining [1] was 2050 MFI, the MFI of PD-1 staining [2] was 1920 MFI and the MFI of PD-1 staining (average) [3] was 4830 MFI. For the same substance, the MFI of PD-1 staining [4] was 2110 MFI, the MFI of PD-1 staining [5] was 2820 MFI and the MFI of PD-1 staining [6] was 5840 MFI. For the same substance, the MFI of PD-1 staining [7] was 4100 MFI, the MFI of PD-1 staining [8] was 1890 MFI and the MFI of PD-1 staining [9] was 4200 MFI. It also gave an MFI of PD-1 staining (average) [10] of 1460 MFI, an MFI of PD-1 staining [11] of 4830 MFI and an MFI of PD-1 staining [12] of 6440 MFI. It also gave an MFI of PD-1 staining [13] of 4620 MFI, an MFI of PD-1 staining [14] of 4380 MFI and an MFI of PD-1 staining [15] of 4280 MFI. The MFI of PD-1 staining [16] was 2020 MFI, the MFI of PD-1 staining [17] was 2120 MFI and the MFI of PD-1 staining [18] was 1870 MFI. The MFI of PD-1 staining [19] was 5070 MFI, the MFI of PD-1 staining [20] was 4480 MFI and the MFI of PD-1 staining (average) [21] was 2190 MFI. The MFI of PD-1 staining [22] was 2250 MFI, the MFI of PD-1 staining [23] was 1690 MFI and the MFI of PD-1 staining [24] was 4870 MFI. For the same substance, the MFI of PD-1 staining [25] was 4020 MFI, the MFI of PD-1 staining [26] was 3190 MFI and the MFI of PD-1 staining (average) [27] was 3090 MFI. The MFI of PD-1 staining [28] was 6550 MFI, the MFI of PD-1 staining [29] was 2370 MFI and the MFI of PD-1 staining [30] was 3220 MFI.
